This assay has as its target trkB.IgG (untagged trk.IgG fusion of the trkB extracellular domain and IgG-1 Fc) (human, UniProt Q16620 32-430). The assay can be described thus: competitive displacement of iodinated NT5 from trkB.IgG in 293 cell supernatant.

Chain of trkB.IgG (untagged trk.IgG fusion of the trkB extracellular domain and IgG-1 Fc) (Q16620 32-822): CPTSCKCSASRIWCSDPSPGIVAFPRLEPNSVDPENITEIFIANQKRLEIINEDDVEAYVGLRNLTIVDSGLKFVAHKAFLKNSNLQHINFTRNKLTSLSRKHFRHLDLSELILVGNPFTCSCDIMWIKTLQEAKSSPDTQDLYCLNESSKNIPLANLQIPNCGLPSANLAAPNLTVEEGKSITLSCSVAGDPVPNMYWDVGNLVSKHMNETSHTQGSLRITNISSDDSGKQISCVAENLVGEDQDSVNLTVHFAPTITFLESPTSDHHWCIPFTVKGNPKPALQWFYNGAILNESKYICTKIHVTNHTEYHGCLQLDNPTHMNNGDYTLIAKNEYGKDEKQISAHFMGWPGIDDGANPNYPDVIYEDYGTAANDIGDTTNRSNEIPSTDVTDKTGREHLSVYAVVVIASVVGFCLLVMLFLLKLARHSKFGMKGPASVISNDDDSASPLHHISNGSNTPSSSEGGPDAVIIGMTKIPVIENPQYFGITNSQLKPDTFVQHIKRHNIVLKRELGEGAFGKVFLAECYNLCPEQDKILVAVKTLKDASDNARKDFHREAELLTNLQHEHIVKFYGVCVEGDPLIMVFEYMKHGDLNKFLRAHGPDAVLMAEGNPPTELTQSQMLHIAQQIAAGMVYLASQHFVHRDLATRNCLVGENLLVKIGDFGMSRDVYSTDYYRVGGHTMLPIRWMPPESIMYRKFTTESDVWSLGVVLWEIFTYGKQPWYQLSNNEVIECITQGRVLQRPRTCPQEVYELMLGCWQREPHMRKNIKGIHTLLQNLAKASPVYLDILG

B1: neurotrophin 5 (NT5) (ligand, UniProt P34130 81-210, looked up)
chain: GVSETAPASRRGELAVCDAVSGWVTDRRTAVDLRGREVEVLGEVPAAGGSPLRQYFFETRCKADNAEEGGPGAGGGGCRGVDRRHWVSECKAKQSYVRALTADAQGRVGWRWIRIDTACVCTLLSRTGRA
notes: It is printed as NTS in several places, which I read as a misprint of NT5; The tracer in the displacement assay was the iodinated form; also called NTS
For orientation: IC50 means the concentration that inhibits the measured activity by half. B1 yielded an IC50 of 31.1 pM.
